Where two headings read alike, the source gives them in different places.
T1: CDT1^ΔN (N-terminally truncated CDT1^158-546) (human, UniProt Q9H211 158-546)
T1 chain: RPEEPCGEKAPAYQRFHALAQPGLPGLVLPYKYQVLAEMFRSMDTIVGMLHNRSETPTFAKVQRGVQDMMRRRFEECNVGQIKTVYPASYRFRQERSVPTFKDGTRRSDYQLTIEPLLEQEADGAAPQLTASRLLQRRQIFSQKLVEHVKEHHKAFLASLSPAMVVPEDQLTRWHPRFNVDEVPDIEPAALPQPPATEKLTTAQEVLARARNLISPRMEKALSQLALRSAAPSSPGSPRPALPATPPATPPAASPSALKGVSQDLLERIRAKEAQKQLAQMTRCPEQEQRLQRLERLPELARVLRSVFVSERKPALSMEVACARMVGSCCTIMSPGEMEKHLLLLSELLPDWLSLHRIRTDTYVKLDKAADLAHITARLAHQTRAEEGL

T2: CDT1^ΔN (N-terminally truncated CDT1^158-546) (human, UniProt Q9H211 158-546)
T2 construct: CDT1, human, UniProt Q9H211, residues 158-546 (lacks the unstructured N-terminus); Plasmid is in Supplementary Data 1; The His tag serves for capture on the NTA chip in the SPR with peptides; also called standard CDT1 construct; source: E. coli BL21 (DE3), purified (HisTrap Excel, POROS HS, Superdex 200); not shown: His6, N-terminal, kept
T2 sequence (looked up): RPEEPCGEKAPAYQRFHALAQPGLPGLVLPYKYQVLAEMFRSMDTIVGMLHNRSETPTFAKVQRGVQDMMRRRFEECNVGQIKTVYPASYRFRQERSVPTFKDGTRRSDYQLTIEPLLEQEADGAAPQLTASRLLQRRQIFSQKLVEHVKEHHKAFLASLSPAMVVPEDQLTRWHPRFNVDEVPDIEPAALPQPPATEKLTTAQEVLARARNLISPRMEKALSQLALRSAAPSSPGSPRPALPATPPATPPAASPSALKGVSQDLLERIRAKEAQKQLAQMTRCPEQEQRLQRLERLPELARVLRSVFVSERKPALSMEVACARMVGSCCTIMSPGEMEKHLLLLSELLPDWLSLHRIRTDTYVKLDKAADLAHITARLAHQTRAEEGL


Columns and labels:
[1] = target: T1, CDT1^ΔN (N-terminally truncated …); assay: SPR
[2] = target: T2, CDT1^ΔN (N-terminally truncated …); assay: SPR; multi-cycle; CDT1^ΔN captured by its N-terminal His tag on an NTA chip; geminin peptides 0.49–250 nM (two-fold steps); 25 °C; 10 mM HEPES, 500 mM NaCl, 50 µM EDTA, 1 mM TCEP-HCl, 0.05% Tween-20, pH 8.0; 1:1 kinetic model of analyte dimer:CDT1, steady-state 1:1 model for Gem^96–160 and Gem^102–160; conditions: both partners purified
[3] = target: the molecule itself; assay: SEC-MALS; Superdex 200 Increase 10/300 GL; peptides 500–1000 µM, 100 µL injected; 10 mM HEPES, 150 mM NaCl, 1 mM TCEP-HCl, pH 7.5; 0.25 mL/min
[4] = target: T1, CDT1^ΔN (N-terminally truncated …); assay: SPR
[5] = target: T1, CDT1^ΔN (N-terminally truncated …); assay: SPR
[6] = target: T2, CDT1^ΔN (N-terminally truncated …); assay: SPR; CDT1^ΔN with Gem^LINK; steady-state 1:1 binding model; chip and cycle format not stated for Gem^LINK; 25 °C; 10 mM HEPES, 500 mM NaCl, 50 µM EDTA, 1 mM TCEP-HCl, 0.05% Tween-20, pH 8.0; conditions: both partners purified
[7] = target: T1, CDT1^ΔN (N-terminally truncated …); assay: SPR
[8] = target: T1, CDT1^ΔN (N-terminally truncated …); assay: SPR

Binder	Kd [2] [nM]	stoichiometry N [3]	binding result [2]	further results
Ac-SQYWKEVAEKRRKALYEALKENEKLHKEIEQKDNEIARLKKENKELAEVA-NH2 (peptide, UniProt O75496 96-145, looked up, geminin, human, UniProt O75496, residues 96-145; Made on Rink amide resin; source: synthetic peptide) [Gem^96–145]	38	2		koff [1]: 0.031 s⁻¹
Gem^76–135 (peptide, UniProt O75496 76-135, looked up, Made on Rink amide resin; source: synthetic peptide) peptide: Ac-KNLGGVTQESFDLMIKENPSSQYWKEVAEKRRKALYEALKENEKLHKEIEQKDNEIARLK-NH2		2	binds	Kd [4]: 7 nM; koff [5]: 0.0029 s⁻¹
Gem^LINK (geminin with a short glycine linker between the two CDT1 interaction interfaces) (natural protein, Full-length geminin with a 5x Gly insertion between I90 and K91 (K96 in post-insertion numbering; no deletion, since mutant residues 76-165 correspond to WT 76-160). Homodimer assumed as for wild …) MNPSMKQKQEEIKENIKNSSVPRRTLKMIQPSASGSLVGRENELSAGLSKRKHRNDHLTSTTSSPGVIVPESSENKNLGGVTQESFDLMIGGGGGKENPSSQYWKEVAEKRRKALYEALKENEKLHKEIEQKDNEIARLKKENKELAEVAEHVQYMAELIERLNGEPLDNFESLDNQEFDSEEETVEDSLVEDSEIGTCAEGTVSSSTDAKPCI				Kd [6]: 38 nM
Gem^96–160 (geminin coiled-coil peptide) (peptide, UniProt O75496 96-160, looked up, geminin, human, UniProt O75496, residues 96-160 (the full coiled-coil); Made on Rink amide resin; source: synthetic peptide) peptide: Ac-SQYWKEVAEKRRKALYEALKENEKLHKEIEQKDNEIARLKKENKELAEVAEHVQYMAELIERLNG-NH2		2	binds	Kd [7]: 21 nM
Gem^90–145 (peptide, UniProt O75496 90-145, looked up, geminin, human, UniProt O75496, residues 90-145; Made on Rink amide resin; source: synthetic peptide) peptide: Ac-IKENPSSQYWKEVAEKRRKALYEALKENEKLHKEIEQKDNEIARLKKENKELAEVA-NH2	93	2		koff [8]: 0.045 s⁻¹
Gem^102–160 (peptide, UniProt O75496 102-160, looked up, geminin, human, UniProt O75496, residues 102-160; Made on Rink amide resin; source: synthetic peptide) peptide: Ac-VAEKRRKALYEALKENEKLHKEIEQKDNEIARLKKENKELAEVAEHVQYMAELIERLNG-NH2	2800	2		
Ac-SQYWKEVAEKRRKALYEALKENEKLHKEIEQKDNEIARLK-NH2 (peptide, UniProt O75496 96-135, looked up, Made on Rink amide resin; source: synthetic peptide) [Gem^96–135 (minimal CDT1-binding peptide)]		2	binds	koff [1]: 0.024 s⁻¹; Kd [7]: 22 nM
Gem^76–140 (peptide, UniProt O75496 76-140, looked up, geminin, human, UniProt O75496, residues 76-140; Made on Rink amide resin; source: synthetic peptide) peptide: Ac-KNLGGVTQESFDLMIKENPSSQYWKEVAEKRRKALYEALKENEKLHKEIEQKDNEIARLKKENKE-NH2		2	binds	Kd [4]: 11 nM; koff [5]: 0.0033 s⁻¹
Ac-SQYWKEVAEKRRKALYEALKENEKLHKEIEQKDNEIARLKKENKE-NH2 (peptide, UniProt O75496 96-140, looked up, geminin, human, UniProt O75496, residues 96-140; Made on Rink amide resin; source: synthetic peptide) [Gem^96–140]		2	binds	koff [1]: 0.022 s⁻¹; Kd [7]: 32 nM
Gem^82–145 (peptide, UniProt O75496 82-145, looked up, geminin, human, UniProt O75496, residues 82-145; Made on Rink amide resin; source: synthetic peptide) peptide: Ac-TQESFDLMIKENPSSQYWKEVAEKRRKALYEALKENEKLHKEIEQKDNEIARLKKENKELAEVA-NH2	5.8	2		koff [8]: 0.0032 s⁻¹
Gem^76–145 (chemically synthesised peptide) (peptide, UniProt O75496 76-145, looked up, geminin, human, UniProt O75496, residues 76-145; Made on Rink amide resin; The recombinant recGem^76–145 is another molecule, used only in licensing assays; source: synthetic peptide) peptide: Ac-KNLGGVTQESFDLMIKENPSSQYWKEVAEKRRKALYEALKENEKLHKEIEQKDNEIARLKKENKELAEVA-NH2	5.7	2		koff [8]: 0.0034 s⁻¹
